First the molecules themselves.
T1: wild-type IL-12 heterodimeric Fc fusion protein (IgG1Fc(knob)-IL12p35 / IgG1Fc(hole)-IL12p40) (human, UniProt P29459 23-219; P29460 23-328)
T1 construct: also called wild-type IL-12 Fc; IL-12 Fc wt; not shown: human IgG1 Fc (knob) with artificial disulfide and N297G; human IgG1 Fc (hole) with artificial disulfide and N297G
T1 sequence 1: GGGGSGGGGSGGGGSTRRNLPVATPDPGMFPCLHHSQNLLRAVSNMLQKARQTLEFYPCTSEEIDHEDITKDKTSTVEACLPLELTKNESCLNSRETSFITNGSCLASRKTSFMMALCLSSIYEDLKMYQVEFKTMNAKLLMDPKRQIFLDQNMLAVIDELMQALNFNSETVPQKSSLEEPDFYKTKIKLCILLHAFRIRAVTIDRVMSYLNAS
T1 sequence 2: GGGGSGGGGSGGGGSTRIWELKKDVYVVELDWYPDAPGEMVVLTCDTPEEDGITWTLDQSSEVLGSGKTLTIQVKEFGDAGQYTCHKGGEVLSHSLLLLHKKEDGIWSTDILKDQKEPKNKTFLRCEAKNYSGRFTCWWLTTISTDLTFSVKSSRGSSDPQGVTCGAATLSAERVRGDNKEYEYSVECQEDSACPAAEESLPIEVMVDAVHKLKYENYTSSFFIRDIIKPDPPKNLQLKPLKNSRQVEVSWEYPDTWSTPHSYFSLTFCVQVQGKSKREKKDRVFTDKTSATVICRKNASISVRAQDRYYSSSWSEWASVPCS

B1: IL-12 Fc K170A mutant (Fc-C-terminal fusion format of Example 1) (Fc fusion, not shown: a dimerising Fc or GST)
chain 1: T1 sequence 1 with K187A
chain 2: T1 sequence 2
B2: IL-12 Fc single mutant Y40A (Fc-C-terminal fusion format of Example 1) (Fc fusion, not shown: a dimerising Fc or GST)
chain 1: T1 sequence 1 with Y57A
chain 2: T1 sequence 2
B3: IL-12 Fc single mutant P127A (Fc-C-terminal fusion format of Example 1) (Fc fusion)
chain 1: T1 sequence 1 with P144A
chain 2: T1 sequence 2
notes: not shown: human IgG1 Fc (knob) with artificial disulfide and N297G; human IgG1 Fc (hole) with artificial disulfide and N297G
B4: IL-12 Fc single mutant K168A (Fc-C-terminal fusion format of Example 1) (Fc fusion)
chain 1: T1 sequence 1 with K185A
chain 2: T1 sequence 2
notes: as for B3
B5: IL-12 Fc single mutant D126A (Fc-C-terminal fusion format of Example 1) (Fc fusion)
chain 1: T1 sequence 1 with D143A
chain 2: T1 sequence 2
notes: as for B3
B6: truncated form of the IL-12Rβ2 extracellular region (domains 1-3) (receptor)
chain: KIDACKRGDVTVKPSHVILLGSTVNITCSLKPRQGCFHYSRRNKLILYKFDRRINFHHGHSLNSQVTGLPLGTTLFVCKLACINSDEIQICGAEIFVGVAPEQPQNLSCIQKGEQGTVACTWERGRDTHLYTEYTLQLSGPKNLTWQKQCKDIYCDYLDFGINLTPESPESNFTAKVTAVNSLGSSSSLPSTFTFLDIVRPLPPWDIRIKFQKASVSRCTLYWRDEGLVLLNRLRYRPSNSRLWNMVNVTKAKGRHDLLDLKPFTEYEFQISSKLHLYKGSWSDWSESLRAQTPEE
notes: also called interleukin 12 receptor beta 2

Assay [1] has as its target IL-12 receptor on HEK-Blue IL-12 cells (InvivoGen) (human, UniProt P42701 24-662; Q99665 24-862). Briefly: cell-based or functional assay.
The target of assay [2] is B6. Put plainly: SPR (Biacore T100, 20 C); IL-12 Fc captured on a protein A chip (190 RU), IL-12Rbeta2 (domains 1-3) as analyte; 1:1 Langmuir model. (SPR reads the build-up and loss of mass on a sensor chip optically.)
Protocol: (§1) SPR measurements were recorded on a Biacore T100 at 20° C. in a buffer comprising 20 mM sodium phosphate pH 7.4, 150 mM NaCl and 0.05% Tween20. […] Following a 300 second dissociation phase, the remaining bound IL-12Rβ2 was washed off the chip using 50 mM Glycine pH 2.5, followed by 50 mM NaOH (30 second injections for each). Kinetic parameters were calculated using BIAevaluation software using a 1:1 Langmuir model, following subtraction of binding to a reference flow cell containing an isotype control antibody.
In assay [3] the target is B6. Briefly: SPR (Biacore T100, 20 C); IL-12 Fc captured on a protein A chip (230 RU), IL-12Rbeta2 (domains 1-3) as analyte; 1:1 Langmuir model.
Protocol: as §1
Assay [4] addresses B6. Put plainly: SPR (Biacore T100, 20 C); IL-12 Fc captured on a protein A chip (220 RU), IL-12Rbeta2 (domains 1-3) as analyte; 1:1 Langmuir model.
Protocol: as §1
For assay [5], the target named is T1, wild-type IL-12 heterodimeric Fc fusion …. Put plainly: SPR as in Example 3; immobilized IL-12 Fc, IL-12Rbeta2 injected at 0.7-500 nM.
Protocol: as §1
The target is the same in assay [6]. Briefly: SPR (Biacore T100, 20 °C), IL-12 Fc captured on protein A chip, IL-12Rβ2 domains 1-3 as analyte, 1:1 Langmuir model.
Protocol: as §1

The values that follow come from patent US20240150422A1 (ONKO INNATE, published 2024).

Positions count from the first letter of the chain named. Numbers in names are those of the source.

As to B1, the “HEK-Blue IL-12 reporter assay, fold reduction in EC50 value” in assay [1] is ~16 fold (vs wild-type).

In the case of B2, in assay [1], the “HEK-Blue IL-12 reporter assay, fold reduction in EC50 value” is ~17 fold (vs IL-12 Fc w.t.) and the “HEK-Blue IL-12 reporter assay, fold reduction in potency” value was ~29 fold (vs IL-12 Fc w.t.).

For B3, the Kd (commonly the free concentration of one partner at which half of the binding sites on the other are occupied at equilibrium, for simple one-to-one binding) in assay [2] is 44.3 nM. In addition, the “HEK-Blue IL-12 reporter assay, fold reduction in potency” value in assay [1] is ~2 fold (vs IL-12 Fc w.t.).

For the molecule B4, the Kd in assay [3] stood at 130 nM.

B5 returned a dissociation constant Kd in assay [4] of 42.9 nM.

Consider B6, for which the results for the equilibrium dissociation constant (Kd) in assay [5] and in assay [6] were 53.2 nM and 13.1 nM, respectively.
